The values that follow come from a protein production outcome set (Wang et al. 2014).
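Also: failed if final PepcDB status was selected cloned or expressed and not failed if soluble or beyond.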

The nature of this series: label from the status in PepcDB records.
As for “DLRSLFQTTVTEVRKLLVADRVMIIKVRQNKNFSWGEIQAEAQTDDKLCLLPPKERVPLSSRWIDHFAKGLILAMDDTDDQRADFDQSMLALAKANLVVPLFSGDRLWGVLSVHQCDGPRVWESSDIEFALKIALNLGVALQQAELLTESQRRSTALQSALGEVEAQKDYLARIAEEERALTRVIEGIRQTL”, the protein production result is on record as “failed”.

As for “MSESLDFSPYLERWALQPDGEPFATHSSRLLPVRHRGAAAMLKISSAEEERFGHVLLNWWDGQGAARVLAYDHQALLMERATGGRSLLEMVRRGDDDEATRILCQAIERIHAPRPGPLPELTPLERWFDSLYAAERRYGGLYVDCANAARYLLETAREQRPLHGDIHHGNVLDFGERGWQVIDPKRLYGERGYDYANLFTNPDAKTAQAPGRFERQLEIVIAASGLQRRRLLQWILAWTGLSAAWFDEDGSREETEAELAIARLALANLARTPAQ”, the protein production entry is recorded as “failed”.

With “MVAQNSVVVIGASGFGRESLDVLEAMKEAGHSLEIIGVVDDNPAAINLQRLAERKIEYLGTLKEWIEGSPKSCKYVLAIGNPTIRHKLSALLDKSGFDAFTAVHPSAVIGSQVVFGSGAVVCSGAVISTNVRLGVHVHINPNVTIGHDSILEDYVSINPAATISGEVLIMEETLIGAAATVLQGLTIGNRSLVGASSCVTKDISAGKVVKGIPARLEHHHHHH”, the protein production entry is reported as “not failed”.

Regarding “NRLPDAVVTVYPTFNSLQMLAHALRMPYHDMRIVSLTGRPWHEFDRALIERAEKIGILTDHEHTPSAIAMRMLDYGYEDYTMSVGTRMGNPQEQCLDTFSLREAADRDFERPNCVILSATRPFVCSRAPLGLSESAFMPLNGRTKMITKMPFRLVSLSCLELHRASSFWDIGFCTGSVSIEAKLNFPHLHITAFEIRPEGAELMPVNSRRFGAPGIAYRIGDFMEEDISSLAPPDAVFIGGHGGRLVEMIAKVHSVMTKGGLLVFNSVSEESRHLFLTGIEACGMELLSSIRLTADGNNPIDILQARKKE”, the protein production entry is listed as “not failed”.

Consider “MVKHLQVRGRLYYRSLAHGLRLTMRRLLFCFLLVLTSLTAIAAEPARPKVGLVLSGGAARGLAHIGVLKALEEQGVRIDAIAGTSMGAVVGGLYASGYSVEELEKLATTLDWQQALSDAPPREDVPFRRKQDDRDFLVKQKLSFRDDGSLGLPLGVIQGQNLSLLLESKLAHTADTRDFDKLPIPFRAVATDIASGEKVVFRRGHLPQVIRASMSIPAVFAPVELDGRLLVDGGMVDNIPVDVAREMGVDLAIVVDIGTPLRDRKQLLTVVDVLNQSITLMTRRNSEEQLASLHRDDILIQPSLTAFGVTDFGRARHMIDAGYRATRLLDPRLAALRQLEGDASLAVARSPRQRTPVITAIRIENDSKVSDDVIRSYIRQPIDAPLELDRLQTDMGTLYGLDYFDRVQYRVVHKGNDHTLVINARGRRGGTDYLRLGLNLSDDLRGDSAFNLGASYRVNGINSLGAEWLTRGQIGDQQALYSEFYQPLDVGSRYFIAPYLDLGSQNIEATLDNDPVAEYRLERYGFGLNVGRQIGNSGEVRLGVGKAWGEAEVRIGDQDLPKVSFNEGFYELKYSFDTLDNVYFPHHGEDIGLTLRKYDKSLDSDQDYRQWLFTLDKAISSGPNTFVLGGSYGRTLDDTEVVTSSFVMGGARQLSGFREDSVSGQNASLLRMVYYRRLTPRAYVPLDFPLYIGGSLERGRAWNNDNEFDSGYINAASIFLGLDTPLGPLNFSYGANSAHEQAVYLNLGHTF”, for which the protein production result is “failed”.

On to “GVSVSPDETMLAFGEDVLSRRVYNIYFKDIESGAMITDVLENTEGRIVWGNDNRHVFYIAKDLQTLLGNRVYRHELGTPQSRDVLVYEEQDDAYYISLGKSLDESQIVLFHESTTTSEVSVLDANDPLSLFKPVLAREEGHEYSVSKLGDSYYVLTNWQATNFRLMKVAIKDAADKSKWQEVVAHNPNARLEDELVLKDYLIIQTRENGLTRIKVMPFNGQKPFELSFDEPAYVLGLDVNA”, for which the protein production entry was “failed”.

In the case of “QRSTFGTKHMVFRTDQLIDGIERNVRITSEEVNAALPVPLLDRQDPGAILISGSSYTEPSEALQTMREAMTQEKFSGSVEIPLGIVRALLDLGFTDEAASWLEDLVPRLGNEWRHQWYSGVTSLLLDDYLTAQQHFNEVYNILPGESAPKLARAAVCEMLLQEKGLESTALLDPAVTVAAADIKGEGMSNIWRELTSDPATLRFKAIYLYALVWRTNPTTVSSAFGLARQLAAENQIDLAVSTLDRVPQNSTHRRMAELTAILHLLGDLSEARLRRAARRLEAIPTNEPRFLQIQIAIMNAALQWLRTGGEAANDPIFEYPFTQRGLRNGLSATLRQLARSAPSSHRYALVDVANQVRPMTWF”, the protein production entry is “not failed”.

For the sequence “MTPQSDTPKVTGLKLKRKSRQLEISFDNGQQFTLSCELLRVYSPSAEVHGHGNPVLVTHKKNVNINAITPVGNYAVKLVFDDGHDTGLYSWKVLYDLASNQVDLWENYLARLRAAKASREPLIDMAVKYHT”, the protein production entry is recorded as “not failed”.

As to “MTLNIYTEEWAPISFSVDGKPDGLAVQVVQEIQKRIDNQDPIKVVPWARGWKIITEQPNTVLFTMTRTAERERMFSLIGPVAVGTTNFYALKNSNLKINLEHHHHHH”, the protein production entry is given as “not failed”.

With “ADELVMSNLHSKENYDKYSEPRGYPKGERSLNFEELKDWGPKNVIKMSTPAVNKMPHSFANLPLRFGRNVQEERSAGATANLPLRSGRNMEVSLVRRVPNLPQRFGRTTTAKSVCRMLSDLCQGSMHSPCANDLFYSMTCQHQEIQNPDQKQSRRLLFKKIDDAELKQEK”, the protein production entry is “failed”.

With “MEIAVERVFTKEILKRAVNLFHVTVEEKPLGDFENYIFKAKGDNDEDYVLRLTHSSHRSKQEVEAELDFLRYVAENGAKVAGPLYSTSRNLVEEIVAEDGTFFFASLFIYAKGEQVKGAESPYWGDAYFEAWGKAIGQLHRLTMDYPKTDYRDTWEEDESGIVNELEDGQVKEIAAVLMDEIKALPVERETFGLMHGDIHQGNFHYDGKELTIFDFDDAAYNYFIHDLAMVLYYSVLFTPWTAEEKTDFARKQLQVLRKGYEYEHRLADSWYESLPLFLRLRDIGLYGTLQKKFKGKDMPDNFLKLSEELYERIIKREAIVNI”, the protein production entry is on record as “failed”.

For the sequence “MKNICFINGSPRSKKANSTLYLNLIDKSLDSKNYTKYYIDTTSSIKGDLESTFKTLLDADYIILAFPLYVYSMPSLLVRFLEDYYIYLKNKDTISQKTNLYAVVNCGFPDAKMNVEALKIVFNCCKKLNINFRFGIGIGAGEFVNFSKNNPLLNKLSSCVYKSINKITYDIENQVSIEINNIFVNPKIPRRLFFIFGHIFWKKWAKRNGIKISALFDKPLEHHHHHH”, the protein production entry was “failed”.

In the case of “MTENGRYEYIVIGSEAAGVGLVRELTAAGKKVLAVDKSKEKIELLEDEGFDAVIADPTDESFYRSLDLEGVSAVLITGSDDEFNLKILKALRSVSDVYAIVRVSSPKKKEEFEEAGANLVVLVADAVKQAFMDKIKKMETL”, the protein production result is given as “not failed”.

In the case of “MEAARSMTFSECAALYIKAHRSSWKNTKHADQWTNTIKTYCGPVIGPLSVQDVDTKLIMKVLDPIWEQKPETASRLRGRIESVLDWATVRGYREGDNLEHHHHHH”, the protein production entry is given as “failed”.

On to “MPILTISGSPSAPSRSARLLGHVRAQLERAGESADHLDLRALPADALLGAQTAHPAIAEALARVAAAGVVILATPVYQAAYSGLLKTFLDLLPQSGLRDKVVLPIATGGSLAHTLAIDYALRPVLSSLAARVILPGIFAADAQIGAADDGFAVDPALQQRLDDGIERVHQAIALARHPAVAQVIVASRRTVRSAFQAHANAQATDAQQRMRCPA”, for which the protein production result is “failed”.

Consider “MIARPMVPTADQLATDDLSLSDRSRFWLAALEASGQGVAIADATHPDLILTYVNSAFKKLTGYNAAEALGKSCRFLQGSDRAQPGITTLRQAIRNGQACEVVLRNYRKDGSLFWNQLTIAPITDGQGKVSHYVALQRDITAFKEQEQALQRQGIYDEHSGLPKRQLFLDRLNQALAWSQFSGVPGALLLIDLGLPAHLDGSPSLSPDAEENLEIIANRLQAYVRPHETLAHLNHHQFGLLLLDPDVQLRAEERAHGIQTLIRDRLAGFEGGAHIGIVPLTPETPATVLLQAAEAAAMTARSQQQGHLSLEASAIVAAPEQYSRDRDWQQAIAAGELTLALQPQMGLRNRQLRGFEVQLRWQHPQQGTLLASQLMEHLEQSQHRETVGRWFLDQAGQLLSQWRNSAQFSGLFALSLLPQQWKSPSFIHDLRSLLETYQIPPEQLELDLPAQSLAESAAESWDWVYAVRDLGIGIGLADFGSRSIGLYDLRNLPLTTLKLERRFVRGLPDDANDRAIVRGVVAMSQALKVRIVARGVDTVDQAKFLARAECDAMQGLAYSAPLTIEEALQVARSPQAPAW”, for which the protein production result is listed as “failed”.
